Test results taken from US11833164B2, “Methods of treating Fabry disease in patients having a mutation in the GLA gene” (Amicus Therapeutics, Inc., priority 2019, dated 2023).
Substitutions are numbered along the chain they refer to. Numbers in names are those of the source.

B1: T366I (protein)
chain: MQLRNPELHLGCALALRFLALVSWDIPGARALDNGLARTPTMGWLHWERFMCNLDCQEEPDSCISEKLFMEMAELMVSEGWKDAGYEYLCIDDCWMAPQRDSEGRLQADPQRFPHGIRQLANYVHSKGLKLGIYADVGNKTCAGFPGSFGYYDIDAQTFADWGVDLLKFDGCYCDSLENLADGYKHMSLALNRTGRSIVYSCEWPLYMWPFQKPNYTEIRQYCNHWRNFADIDDSWKSIKSILDWTSFNQERIVDVAGPGGWNDPDMLVIGNFGLSWNQQVTQMALWAIMAAPLFMSNDLRHISPQAKALLQDKDVIAINQDPLGKQGYQLRQGDNFEVWERPLSGLAWAVAMINRQEIGGPRSYIIAVASLGKGVACNPACFITQLLPVKRKLGFYEWTSRLRSHINPTGTVLLQLENTMQMSLKDLL
B2: V369L (protein)
chain: B1 chain with I366T, V369L
B3: A370G (protein)
chain: B1 chain with I366T, A370G
B4: I367F (protein)
chain: B1 chain with I366T, I367F
B5: T366S (protein)
chain: B1 chain with I366S
B6: V369A (protein)
chain: B1 chain with I366T, V369A
B7: I367L (protein)
chain: B1 chain with I366T, I367L
B8: T366P (protein)
chain: B1 chain with I366P
B9: V369I (protein)
chain: B1 chain with I366T, V369I
B10: I367M (protein)
chain: B1 chain with I366T, I367M
B11: A370D (protein)
chain: B1 chain with I366T, A370D
B12: V369F (protein)
chain: B1 chain with I366T, V369F
B13: V369G (protein)
chain: B1 chain with I366T, V369G
B14: A368G (protein)
chain: B1 chain with I366T, A368G
B15: A370T (protein)
chain: B1 chain with I366T, A370T
B16: T366N (protein)
chain: B1 chain with I366N
B17: A370P (protein)
chain: B1 chain with I366T, A370P
B18: A368P (protein)
chain: B1 chain with I366T, A368P

test system: mutant form of α-Gal A expressed in HEK-293 cells; experiment: HEK assay (GLP HEK / Migalastat Amenability Assay): α-Gal A activity in lysates of transiently transfected HEK-293 cells incubated with or without 10 μM migalastat; type: cell-based, human; conditions: 10 μM migalastat versus baseline
Method in brief: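 Activity reported as 4-MU released (nmol/mg/hr), mean±SEM, from lysates of transiently transfected HEK-293 cells expressing mutant α-Gal A, cultured with or without 10 μM migalastat.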

Going from B1 to B2, the “Absolute increase (% WT)” value rises from 20.0 % WT to 30.3 % WT.

Going from B3 to B4, the “Absolute increase (% WT)” value falls from 22.9 % WT to 21.6 % WT.

Compared with B5, B6 is higher in “Absolute increase (% WT)” value: 16.2 % WT for the first, 38.6 % WT for the second.

Compared with B7, B8 is lower in “Absolute increase (% WT)” value: 21.9 % WT for the first, 13.4 % WT for the second.

Compared with B9, B10 is higher in “Absolute increase (% WT)” value: 19.6 % WT for the first, 22.3 % WT for the second.

Compared with B11, B12 is lower in “Absolute increase (% WT)” value: 22.4 % WT for the first, 19.6 % WT for the second.

Compared with B13, B14 is higher in “Absolute increase (% WT)” value: 5.5 % WT for the first, 30.9 % WT for the second.

First: B15
Second: B16
The “Absolute increase (% WT)” value of the first is lower: 17.6 % WT for the first, 20.4 % WT for the second.

First: B17
Second: B18
The “Absolute increase (% WT)” value of the first is lower: 16.9 % WT for the first, 25.7 % WT for the second.

Going from B1 to B2, the Relative increase rises from 1.3 to 1.4.

First: B3
Second: B4
The Relative increase of the first is lower: 1.3 for the first, 1.4 for the second.

Compared with B5, B6 is higher in Relative increase: 1.2 for the first, 1.5 for the second.

Going from B7 to B8, the Relative increase rises from 1.2 to 1.3.

Going from B9 to B10, the Relative increase rises from 1.2 to 1.3.

First: B11
Second: B12
The Relative increase of the first is lower: 1.2 for the first, 1.5 for the second.

Going from B13 to B14, the Relative increase falls from 3.3 to 1.3.

First: B15
Second: B16
The Relative increase of the first is lower: 1.2 for the first, 1.3 for the second.

Going from B17 to B18, the Relative increase falls from 1.5 to 1.3.

same assay, conditions: absence of migalastat; percentage of baseline wild-type α-Gal A activity; mean ± SEM

Going from B1 to B2, the “Baseline α-Gal A activity (% WT)” value rises from 57.8 ± 2.5 % WT to 74.2 ± 3.7 % WT.

Compared with B3, B4 is lower in “Baseline α-Gal A activity (% WT)” value: 78.1 ± 4.4 % WT for the first, 48.3 ± 3.7 % WT for the second.

B5 and B6 are within error of each other in “Baseline α-Gal A activity (% WT)” value: 70.6 ± 4.9 % WT for the first, 77.6 ± 5 % WT for the second.

Going from B7 to B8, the “Baseline α-Gal A activity (% WT)” value falls from 79 ± 4 % WT to 46.2 ± 4 % WT.

B9 and B10 are within error of each other in “Baseline α-Gal A activity (% WT)” value: 79.7 ± 6.8 % WT for the first, 76.7 ± 3.9 % WT for the second.

First: B11
Second: B12
The “Baseline α-Gal A activity (% WT)” value of the first is higher: 87.5 ± 6.1 % WT for the first, 37.7 ± 2.8 % WT for the second.

Going from B13 to B14, the “Baseline α-Gal A activity (% WT)” value rises from 2.6 ± 0.2 % WT to 83.9 ± 4.7 % WT.

B15 and B16 are within error of each other in “Baseline α-Gal A activity (% WT)” value: 79.9 ± 4.3 % WT for the first, 78.1 ± 5.3 % WT for the second.

Compared with B17, B18 is higher in “Baseline α-Gal A activity (% WT)” value: 33.9 ± 2.8 % WT for the first, 91.7 ± 4.6 % WT for the second.

same assay, conditions: lysates of HEK-293 cells transiently transfected with the mutant form, incubated 5 days in absence of migalastat; mean ± SEM

Going from B1 to B2, the “Baseline α-Gal A activity” value rises from 18539 ± 1165 nmol/mg/h to 27680 ± 1912 nmol/mg/h.

First: B3
Second: B4
The “Baseline α-Gal A activity” value of the first is higher: 24835 ± 2637 nmol/mg/h for the first, 15728 ± 1680 nmol/mg/h for the second.

B5 and B6 are within error of each other in “Baseline α-Gal A activity” value: 20731 ± 2170 nmol/mg/h for the first, 23968 ± 1797 nmol/mg/h for the second.

Compared with B7, B8 is lower in “Baseline α-Gal A activity” value: 25211 ± 1640 nmol/mg/h for the first, 13407 ± 1462 nmol/mg/h for the second.

B9 and B10 are within error of each other in “Baseline α-Gal A activity” value: 30094 ± 3211 nmol/mg/h for the first, 28430 ± 1769 nmol/mg/h for the second.

First: B11
Second: B12
The “Baseline α-Gal A activity” value of the first is higher: 27098 ± 2504 nmol/mg/h for the first, 11912 ± 1197 nmol/mg/h for the second.

Going from B13 to B14, the “Baseline α-Gal A activity” value rises from 803 ± 59 nmol/mg/h to 31616 ± 2552 nmol/mg/h.

B15 and B16 are within error of each other in “Baseline α-Gal A activity” value: 25024 ± 1951 nmol/mg/h for the first, 24650 ± 1756 nmol/mg/h for the second.

First: B17
Second: B18
The “Baseline α-Gal A activity” value of the first is lower: 10431 ± 975 nmol/mg/h for the first, 26402 ± 926 nmol/mg/h for the second.

same assay, conditions: lysates of HEK-293 cells transiently transfected with the mutant form, incubated 5 days with 10 μM migalastat; mean ± SEM

Going from B1 to B2, the “10 μM migalastat α-Gal A activity” value rises from 24814 ± 1897 nmol/mg/h to 38458 ± 2367 nmol/mg/h.

Going from B3 to B4, the “10 μM migalastat α-Gal A activity” value falls from 31805 ± 3001 nmol/mg/h to 22178 ± 1794 nmol/mg/h.

Compared with B5, B6 is higher in “10 μM migalastat α-Gal A activity” value: 24885 ± 1760 nmol/mg/h for the first, 35925 ± 2462 nmol/mg/h for the second.

Going from B7 to B8, the “10 μM migalastat α-Gal A activity” value falls from 31257 ± 2256 nmol/mg/h to 16910 ± 1608 nmol/mg/h.

B9 and B10 are within error of each other in “10 μM migalastat α-Gal A activity” value: 36630 ± 2373 nmol/mg/h for the first, 36008 ± 2249 nmol/mg/h for the second.

Compared with B11, B12 is lower in “10 μM migalastat α-Gal A activity” value: 33279 ± 2473 nmol/mg/h for the first, 18282 ± 1960 nmol/mg/h for the second.

First: B13
Second: B14
The “10 μM migalastat α-Gal A activity” value of the first is lower: 2628 ± 291 nmol/mg/h for the first, 42198 ± 2923 nmol/mg/h for the second.

B15 and B16 are within error of each other in “10 μM migalastat α-Gal A activity” value: 30276 ± 2364 nmol/mg/h for the first, 30947 ± 1867 nmol/mg/h for the second.

Going from B17 to B18, the “10 μM migalastat α-Gal A activity” value rises from 15618 ± 1776 nmol/mg/h to 33525 ± 1803 nmol/mg/h.

same assay, conditions: with 10 μM migalastat, 5 days; percentage of baseline wild-type α-Gal A activity; mean ± SEM

Compared with B1, B2 is higher in “10 μM migalastat α-Gal A activity (% WT)” value: 77.8 ± 5.3 % WT for the first, 104.5 ± 5.6 % WT for the second.

Going from B3 to B4, the “10 μM migalastat α-Gal A activity (% WT)” value falls from 101 ± 5.4 % WT to 69.9 ± 5.7 % WT.

Going from B5 to B6, the “10 μM migalastat α-Gal A activity (% WT)” value rises from 86.7 ± 3.6 % WT to 116.2 ± 6.3 % WT.

Going from B7 to B8, the “10 μM migalastat α-Gal A activity (% WT)” value falls from 101 ± 9.3 % WT to 59.5 ± 5.1 % WT.

B9 and B10 are within error of each other in “10 μM migalastat α-Gal A activity (% WT)” value: 99.3 ± 5.5 % WT for the first, 99 ± 6.7 % WT for the second.

Going from B11 to B12, the “10 μM migalastat α-Gal A activity (% WT)” value falls from 109.8 ± 6.8 % WT to 57.3 ± 4.8 % WT.

Going from B13 to B14, the “10 μM migalastat α-Gal A activity (% WT)” value rises from 8.1 ± 0.7 % WT to 114.8 ± 7.8 % WT.

B15 and B16 are within error of each other in “10 μM migalastat α-Gal A activity (% WT)” value: 97.5 ± 6.1 % WT for the first, 98.5 ± 5.4 % WT for the second.

Compared with B17, B18 is higher in “10 μM migalastat α-Gal A activity (% WT)” value: 50.7 ± 5.4 % WT for the first, 117.4 ± 8.7 % WT for the second.
